Reference: patent publication US20100076177A1 (published 2010)
Blank lines part the entries; values can stand above or below the binder they belong to.

Key:
hDC-SIGN = molecular target: T1, hDC-SIGN (human, UniProt Q9NNX6 60-404); experiment: BIAcore 3000
T1 chain: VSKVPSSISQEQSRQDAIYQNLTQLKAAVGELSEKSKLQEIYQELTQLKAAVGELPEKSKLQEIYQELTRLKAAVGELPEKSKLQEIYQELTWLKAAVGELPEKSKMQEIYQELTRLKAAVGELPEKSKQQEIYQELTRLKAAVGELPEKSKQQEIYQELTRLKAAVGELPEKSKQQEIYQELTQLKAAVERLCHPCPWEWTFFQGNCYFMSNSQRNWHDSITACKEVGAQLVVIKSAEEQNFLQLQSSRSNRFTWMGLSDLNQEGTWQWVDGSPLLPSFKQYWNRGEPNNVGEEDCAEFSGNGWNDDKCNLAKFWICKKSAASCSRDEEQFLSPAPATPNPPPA

[1] = molecular target: mannan-binding lectin (MBL) (human, UniProt P11226 21-248); experiment: BIAcore 3000
Sequence of mannan-binding lectin (MBL) (P11226 21-248): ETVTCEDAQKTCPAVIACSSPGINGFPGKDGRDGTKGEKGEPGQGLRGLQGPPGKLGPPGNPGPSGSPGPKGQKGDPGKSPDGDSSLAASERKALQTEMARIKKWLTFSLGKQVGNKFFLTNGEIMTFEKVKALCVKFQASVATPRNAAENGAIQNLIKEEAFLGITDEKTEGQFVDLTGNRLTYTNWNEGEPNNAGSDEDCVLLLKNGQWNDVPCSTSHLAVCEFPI

Kd (hDC-SIGN): 3.88 nM
B1: AZN-D1, murine monoclonal antibody directed to h-DC-SIGN (the "initial antibody" of Example 2) (antibody, V domains shown)
VH: QVQLQQSGPQSVRPGASVKISCKASGYSFTSYWMGWVKQRPGQGLEWIGMIDPFDSESRLNQEFKDKATLTVDKSSSTVYMQLSSPTSEDSAIYYCVRRNGGYYVFDSWGQGTTLTVSS
VL: DVLMTQSPLSLPVSLGDKASISCRSSQNIVHSNGDTYLEWYLQRPGQSPKLLIFKVSNRFSGVPDRFSGSGSGTDFILKISRVEAEDLGVYYCFQGSHVPWTFGGGTKLEIK

Kd [1]: 1.24 nM
B2: murine monoclonal antibody directed to human mannose binding lectin (the "initial antibody" of Example 1) (antibody, V domains shown)
VH: VQLQESGPGLVKPSQSLSLTCTVTGYSITSDYAWNWIRQFPGNKLEWMGYISYSGSTSYNPSLKSRVSITRDTSKNQFFLQLNSVTTEDTATYYCARWESWFAYWGQGTLVTVSA
VL: DIVLTQSPATLSVTPGDSVSLSCRASQSISNDLHWYQQKSHESPRLLIKYASQSISGIPSRFSGSGSGTDFTLSINSVETEDFGMYFCQQSNSWPYTFGGGTKLEIK
